Source: PMC5993284, “Peptide inhibitors of the anaphase promoting-complex that cause sensitivity to microtubule poison” (PLoS ONE, 2018)
Where “and” joins values, the source holds several entries; their conditions need not be identical. Equal entries are not always repeated. Where two headings read alike, the source gives them in different places. Ends that are not written are not given here.

B1: Mad2: pure recombinant MCC component Mad2 (protein)
chain: MSQSISLKGSTRTVTEFFEYSINSILYQRGVYPAEDFVTVKKYDLTLLKTHDDELKDYIRKILLQVHRWLLGGKCNQLVLCIVDKDEGEVVERWSFNVQHISGNSNGQDDVVDLNTTQSQIRALIRQITSSVTFLPELTKEGGYTFTVLAYTDADAKVPLEWADSNSKEIPDGEVVQFKTFSTNDHKVGAQVSYKY
B2: Bub3: pure recombinant MCC component Bub3 (protein, UniProt P26449 1-341, looked up)
Spindle assembly checkpoint …: MQIVQIEQAPKDYISDIKIIPSKSLLLITSWDGSLTVYKFDIQAKNVDLLQSLRYKHPLLCCNFIDNTDLQIYVGTVQGEILKVDLIGSPSFQALTNNEANLGICRICKYGDDKLIAASWDGLIEVIDPRNYGDGVIAVKNLNSNNTKVKNKIFTMDTNSSRLIVGMNNSQVQWFRLPLCEDDNGTIEESGLKYQIRDVALLPKEQEGYACSSIDGRVAVEFFDDQGDDYNSSKRFAFRCHRLNLKDTNLAYPVNSIEFSPRHKFLYTAGSDGIISCWNLQTRKKIKNFAKFNEDSVVKIACSDNILCLATSDDTFKTNAAIDQTIELNASSIYIIFDYEN
B3: Mad3-Bub3 complex: recombinant Mad3-Bub3 complex (protein, UniProt P47074 1-515; P26449 1-341, looked up)
Spindle assembly checkpoint … 1: MKAYAKKRISYMPSSPSQNVINFEEIETQKENILPLKEGRSAAALSKAIHQPLVEINQVKSSFEQRLIDELPALSDPITLYLEYIKWLNNAYPQGGNSKQSGMLTLLERCLSHLKDLERYRNDVRFLKIWFWYIELFTRNSFMESRDIFMYMLRNGIGSELASFYEEFTNLLIQKEKFQYAVKILQLGIKNKARPNKVLEDRLNHLLRELGENNIQLGNEISMDSLESTVLGKTRSEFVNRLELANQNGTSSDVNLTKNNVFVDGEESDVELFETPNRGVYRDGWENFDLKAERNKENNLRISLLEANTNLGELKQHEMLSQKKRPYDEKLPIFRDSIGRSDPVYQMINTKDQKPEKIDCNFKLIYCEDEESKGGRLEFSLEEVLAISRNVYKRVRTNRKHPREANLGQEESANQKEAEAQSKRPKISRKALVSKSLTPSNQGRMFSGEEYINCPMTPKGRSTETSDIISAVKPRQLTPILEMRESNSFSQSKNSEIISDDDKSSSSFISYPPQR
Spindle assembly checkpoint … 2: MQIVQIEQAPKDYISDIKIIPSKSLLLITSWDGSLTVYKFDIQAKNVDLLQSLRYKHPLLCCNFIDNTDLQIYVGTVQGEILKVDLIGSPSFQALTNNEANLGICRICKYGDDKLIAASWDGLIEVIDPRNYGDGVIAVKNLNSNNTKVKNKIFTMDTNSSRLIVGMNNSQVQWFRLPLCEDDNGTIEESGLKYQIRDVALLPKEQEGYACSSIDGRVAVEFFDDQGDDYNSSKRFAFRCHRLNLKDTNLAYPVNSIEFSPRHKFLYTAGSDGIISCWNLQTRKKIKNFAKFNEDSVVKIACSDNILCLATSDDTFKTNAAIDQTIELNASSIYIIFDYEN
B4: Mad3: pure recombinant MCC component Mad3 (protein, UniProt P47074 1-515, looked up)
Spindle assembly checkpoint …: MKAYAKKRISYMPSSPSQNVINFEEIETQKENILPLKEGRSAAALSKAIHQPLVEINQVKSSFEQRLIDELPALSDPITLYLEYIKWLNNAYPQGGNSKQSGMLTLLERCLSHLKDLERYRNDVRFLKIWFWYIELFTRNSFMESRDIFMYMLRNGIGSELASFYEEFTNLLIQKEKFQYAVKILQLGIKNKARPNKVLEDRLNHLLRELGENNIQLGNEISMDSLESTVLGKTRSEFVNRLELANQNGTSSDVNLTKNNVFVDGEESDVELFETPNRGVYRDGWENFDLKAERNKENNLRISLLEANTNLGELKQHEMLSQKKRPYDEKLPIFRDSIGRSDPVYQMINTKDQKPEKIDCNFKLIYCEDEESKGGRLEFSLEEVLAISRNVYKRVRTNRKHPREANLGQEESANQKEAEAQSKRPKISRKALVSKSLTPSNQGRMFSGEEYINCPMTPKGRSTETSDIISAVKPRQLTPILEMRESNSFSQSKNSEIISDDDKSSSSFISYPPQR

Molecular target: T1, APC/C^Cdc20 (Saccharomyces cerevisiae, UniProt P16522+P53886)
T1 construct: constructed within full-length Cdc20 by site-directed mutagenesis for analysis in vitro in the APC/C^Cdc20 assay; The APC/C was purified for enzyme assays from 1 mL of TAP-tagged Cdc16 yeast extract (SCSY51); made in house; host or cells: Cdc20: in vitro transcription/translation in rabbit reticulocyte lysate, used unpurified; APC/C: S. cerevisiae strain SCSY51 (Cdc16-TAP) extract, captured on IgG magnetic beads
Experiment: biochemical
Format: biochemical
Settings: for inhibition of APC/C^Cdc20 activity (in words): 220 μM peptide, time course 0-60 minutes, vs buffer only, n = 3; for ubiquitinated Pds1 species at 60 minutes (in words): inhibitor at about 4-times the IC50, S2 Fig C
Method: Full-length, radio-labeled protein purifications were preformed as previously described. ^35S-Pds1 was prepared in a 500 μL IVT/T (In Vitro Transcription/Translation) reaction (Promega, USA), which contained 400 μL rabbit reticulocyte lysate, 20 μL of L-^35S-methionine (PerkinElmer, USA), 10 μg of plasmid DNA, and the remaining volume as nuclease-free ddH2O as recommended by the manufacturer. The reaction mixture was incubated for 2 hours at room temperature and gently mixed every 30 minutes. The reaction was added to pre-equilibrated IgG Sepharose beads (GE Healthcare, USA) in Bio-spin disposable chromatography columns (Bio-Rad, USA) for binding for 2 hours at room temperature. To ensure efficient binding, the beads were re-suspended several times every 30 minutes. After binding, the beads were washed with 5 mL wash buffer, containing 200 mM 4-(2-hydroxyethyl)-1-piperazineethanesulfonic acid (HEPES) at pH 8.0, 150 mM NaCl, 10% (v/v) glycerol, and 1 mM dithiothreitol (DTT). The ^35S-Pds1 was cleaved from the beads using TEV (Tobacco Etch Virus) protease in 1x TEV buffer (Invitrogen, USA) for 2 hours at room temperature, and the mixture was re-suspended several times every 30 minutes to promote efficient cleavage. The elution was collected and concentrated by employing an Amicon Ultra filter column (Millipore, Ireland). The concentrated ^35S-Pds1 was collected in a new tube, and stored at -20 °C.
The production of Cdc20 or Cdh1 was prepared by IVT/T reactions, where 16 μL of rabbit reticulocyte lysate, 20 μM L-methionine, 0.4 μg of plasmid DNA, and a volume of nuclease-free ddH2O for a total volume of 20 μL. This freshly synthesized Cdc20 or Cdh1 protein was used directly in all APC/C assays after a 1-hour synthesis reaction at room temperature. The APC/C was purified for enzyme assays from 1 mL of TAP-tagged Cdc16 yeast extract (SCSY51) where extract was mixed with 50 μL 50:50 slurry magnetic beads (Invitrogen, Norway) for 2 hours at 4 °C. After incubation, the beads were washed with 3 mL APC/C wash buffer (200 mM of HEPES, 150 mM of NaCl and 10% (v/v) of glycerol). APC/C bound to IgG magnetic beads was used directly in the enzyme assays.
APC/C assays were performed by adding the reaction contents in following order: 4.3 μL of QAH buffer, 20 μL of rabbit reticulocyte lysate containing Cdc20 or Cdh1 with or without an additional volume of recombinant checkpoint protein(s) or inhibitor peptides, 2.4 μL ubiquitin aldehyde (Boston Biochem, USA), APC/C, 16 μL pre-charged E1/E2/ATP/ubiquitin mix, and 13.3 μL of ^35S-Pds1 with QAH buffer (20 mM HEPES at pH 8.0, 100 mM NaCl, and 1 mM MgCl2). The E1/E2/ATP/ubiquitin mix were pre-charged by mixing 1 μL of E1 (Boston Biochem, USA), 1 μL of E2 (Boston Biochem, USA), 14.4 μL of ATP, 14.4 μL of […] (Boston Biochem, USA), and 17.2 μL of QAH buffer and incubated for 15 minutes at room temperature. Approximately 15 μL of samples were taken out at each time point, and the reaction was stopped by the addition of 2x protein sample buffer (125 mM Tris-HCl pH 6.8, 4% SDS, 20% glycerol, and 0.002% bromophenol blue, with 10% (final v/v) 2-mercaptoethanol added in fresh directly before use).
For inhibitor titration and time-course experiments, recombinant Bub3, Mad2, Mad3, and the Mad3-Bub3 complex were expressed and purified as previously described. […] For inhibition of APC/C the co-factor Cdc20 or Cdh1 was made fresh by IVT/T, and pure recombinant checkpoint proteins or inhibitor peptides were added to the IVT/T mixture and incubated for an additional hour at room temperature. In titrations, a dilution series of the checkpoint protein(s) were made before incubation with the Cdc20 co-factor. SDS-PAGE was performed using stand protocols (BioRad, USA).

[1] = MCC subunits, 4-parameter Hill fit, ± sd
[2] = MCC subunits, titration, 4-parameter Hill fit, ± sd from three independent titrations, 35S-Pds1 substrate, read-out: IC50

Row | Molecule | inhibition of APC/C^Cdc20 activity (in words) (35S-Pds1 substrate) | Hill coefficient [1] | IC50 [2] [nM] | other results
1 | C-box1: C-box containing peptide C-box1 (130–167) (TTSREVDEQFTVAADRYIPILQGASQNKVDPETLHEAL; UniProt P26309 130-167, looked up, fragment) | A significant level of APC/C^Cdc20 inhibition was observed only in the presence of the C-box2 peptide |  |  | 
2 | EV25: C-box containing peptide EV25 (Cdc20 134–158) (EVDEQFTVAADRYIPILQGASQNKV; UniProt P26309 134-158, looked up, fragment) | A significant level of APC/C^Cdc20 inhibition was observed only in the presence of the C-box2 peptide |  |  | 
3 | AV16: C-box containing peptide AV16 (Cdc20 143–158) (ADRYIPILQGASQNKV; UniProt P26309 143-158, looked up, fragment) | A significant level of APC/C^Cdc20 inhibition was observed only in the presence of the C-box2 peptide |  |  | 
4 | DS17: DS17 (Cdc20 197–212) peptide derived from the N-terminal portion of the DQ36 peptide (DMNKRILQYMPEPPKC; UniProt P26309 197-212, looked up, fragment) | no significant inhibition was observed |  |  | 
5 | DMNKRILQYMPEPPKCSSLRQKSYIMKKRTHYSYQQ [DQ36] |  |  |  | IC50: ~150000 nM; IC50 weaker than that of PQ65 (times) (ratio of IC50 relative to PQ65): about 3 times
6 | MKVLDDWFSRKFSKAVHGNNHGTISLSTLSYIRVHKLVK [Tyc1] |  |  |  | IC50: ~50000 nM
7 | PL29: PL29 (Cdc20 167–196) that does not contain the KILR-motif (LPPPNASPISHLRAQTKIVFKQNVAEACGL; UniProt P26309 167-196, looked up, fragment) | displayed the ability to inhibit APC/C^Cdc20 activity |  |  | 
8 | B1 | yields a high level of inhibition | 2.4 ± 0.3 and 2.4 | 2300 ± 500 | ubiquitinated Pds1 species at 60 minutes (in words): the small amount of Pds1 that is ubiquitinated appears to be fully poly-ubiquitinated
9 | B2 |  | 2.2 ± 0.4 and 2.2 | 8700 ± 2400 | 
10 | B3 |  | 7.3 ± 2.6 | 89 ± 4 | Hill coefficient (MCC subunits, 4-parameter Hill fit, ± sd, listed as Mad3-Bub3): 7.3; Hill coefficient (Mad3-Bub3 complex in the presence of 0.5 μM Mad2, ± sd): 8.2 ±1.9; IC50 (Mad3-Bub3 complex in the presence of 0.5 μM Mad2, ± sd, three independent titrations, read-out: IC50): 70 ± 3 nM; ubiquitinated Pds1 species at 60 minutes (in words): the Pds1 accumulated in these lower molecular weight species
11 | B4 |  | 5.0 ± 0.9 and 5.0 | 240 ± 10 | 
